Measured values published in patent publication US20040208877A1.

Columns and labels:
[1] = biological target: PSGL-1 (P-Selectin Glycoprotein Ligand-1) (human) (UniProt Q14242); assay: FACS, PE-labeled KPL-1 on ML2 cells
[2] = biological target: PSGL-1 (P-Selectin Glycoprotein Ligand-1) (human) (UniProt Q14242); assay: FACS competition on ML2 cells, 200 ng KPL-1, competitor IgG Y1-PE

Chain of UniProt Q14242 (Q14242 42-412): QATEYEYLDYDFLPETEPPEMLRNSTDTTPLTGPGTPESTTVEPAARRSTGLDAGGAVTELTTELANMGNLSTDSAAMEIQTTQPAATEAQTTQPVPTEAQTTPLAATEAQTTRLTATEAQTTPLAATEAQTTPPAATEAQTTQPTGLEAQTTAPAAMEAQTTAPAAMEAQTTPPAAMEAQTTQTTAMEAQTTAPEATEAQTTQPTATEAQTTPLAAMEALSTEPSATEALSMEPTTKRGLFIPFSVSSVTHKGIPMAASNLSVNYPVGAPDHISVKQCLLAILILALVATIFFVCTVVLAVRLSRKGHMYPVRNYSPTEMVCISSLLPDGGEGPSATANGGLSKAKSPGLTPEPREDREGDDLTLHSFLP

Median (Geo mean) [1]: 700 geo mean
Median (Geo mean) of IgG Y1-PE binding [2]: 2 geo mean
Percent Inhibition [2]: 100%
Substance: KPL-1 (commercially available murine monoclonal antibody against PSGL1)
